In patent US20240383996A1:

Columns and labels:
[1] = target: Human OX40 expressed on transfected Jurkat or CHO cells (human) (UniProt P43489); experiment: flow cytometry, whole cell binding to human OX40-expressing Jurkat cells, Geo MFI
[2] = target: Human CTLA4 expressed on transfected CHO or Jurkat cells (human) (UniProt P16410); experiment: flow cytometry, whole cell binding to human CTLA4-expressing Jurkat cells, Geo MFI
Human CTLA4 expressed on transfected CHO or Jurkat cells (human), sequence (P16410 36-222 limits assumed): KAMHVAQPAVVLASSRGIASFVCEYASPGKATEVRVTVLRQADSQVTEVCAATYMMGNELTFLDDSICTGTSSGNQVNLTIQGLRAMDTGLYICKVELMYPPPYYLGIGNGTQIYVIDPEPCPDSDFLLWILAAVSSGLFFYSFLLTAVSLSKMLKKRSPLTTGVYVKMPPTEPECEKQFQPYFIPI

Human OX40 expressed on transfected Jurkat or CHO cells (human), sequence (P43489 29-277 limits assumed): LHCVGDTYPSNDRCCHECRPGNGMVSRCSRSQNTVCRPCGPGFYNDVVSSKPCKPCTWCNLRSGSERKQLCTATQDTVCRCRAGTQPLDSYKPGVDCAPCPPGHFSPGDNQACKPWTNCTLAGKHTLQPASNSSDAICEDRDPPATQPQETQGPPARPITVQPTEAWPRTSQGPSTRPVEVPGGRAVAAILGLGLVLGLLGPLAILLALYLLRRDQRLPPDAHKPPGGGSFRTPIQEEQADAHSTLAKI

EC50 [1]: 10.3 nM | EC50 [2]: 37.4 nM
Substance: ATOR-1015 analog (reference anti-OX40/CTLA4 bispecific antibody synthesized in-house)
